In patent publication US20080182978A1, “ANTI-NGF ANTIBODIES AND METHODS USING SAME” (RINAT NEUROSCIENCE CORP, priority 2002, published 2008):
Entries after “also recorded” stand apart in the source; their conditions may differ.

Key:
NT4/5 = target: T1, NT4/5 (Homo sapiens, UniProt P34130); test: Mouse E17 nodose neuron survival assay, NT4/5; type: cell-based; conditions: NT4/5 400 pM; antibody up to 200 nM; 48 hours
T1 sequence (P34130 81-210): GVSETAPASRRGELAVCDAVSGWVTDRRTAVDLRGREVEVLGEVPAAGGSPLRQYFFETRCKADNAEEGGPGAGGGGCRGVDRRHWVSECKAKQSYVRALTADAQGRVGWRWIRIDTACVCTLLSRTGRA
Procedure: The ability of antibody E3 to specifically block NGF activity was also evaluated by measurement of the capacity of the antibody to inhibit survival of mouse nodose E17 neurons in the presence of saturating concentrations of BDNF or NT4/5. Survival of nodose neurons is supported by BDNF or NT4/5; therefore, survival of these neurons is a sensitive assay to evaluate the BDNF or NT4/5-blocking ability of the anti-NGF antagonist antibody.
The survival assay was conducted as follows: time mated pregnant Swiss Webster female mice were euthanised by CO2 inhalation. The uterine horns were removed and the embryos (at embryonic day 17 or 18) were extracted and decapitated. The trigeminal and nodose ganglia were dissected and cleaned. The ganglia were then trypsinised, mechanically dissociated and plated at a density of 100-300 cells per well in defined, serum-free medium in 4-well plates (Greiner) coated with poly-L-ornithine and laminin.
E17 nodose neurons were grown either in the absence of added neurotrophic factors (negative control), or with saturating concentrations of BDNF (400 pM) (positive control) or NT4/5 (400 pM) or NGF unrelated growth factor […]. High concentrations of neurotrophins were used, as the goal of this experiment was to test specificity of the antibodies. […]

[1] = test system: adjuvant-induced arthritis; test: Dose response of E3 on vocalization intensity in arthritic rats (Example 9); type: in vivo, rat
Procedure: The ability of E3 to produce reduction in pain in arthritic rats was further investigated by examining the dose response relationship between E3 administration and pain reduction. Rats were treated with adjuvant to induce arthritis as described above. Ten rats not injected with adjuvant were used as non-arthritic controls. Fourteen days after adjuvant injection, animals were qualified into the study based on the criteria stated above, randomized into eight groups of ten rats and tested for the intensity of their vocalization response. They were then dosed on day 14 with saline, or 0.003 mg/kg, 0.01 mg/kg, 0.03 mg/kg, 0.1 mg/kg, 0.3 mg/kg, 1 mg/kg or 5 mg/kg of E3 antibody as described above. Animals were tested for their vocalization response on days 16, 18, 20, and 24. Animals were redosed with saline or the same dose of E3 on day 18 after the vocalization testing. Animals were also weighed each day, starting at day 14. Thus, animals were dosed twice with a given dose of antibody or saline on days 14 and 18, and assessed for pain five times, on days 14, 16, 18, 20 and 24. Data are shown in Tables 20-22 and in FIGS. 20-22. The effect of treating animals with various doses of anti-NGF antibody E3 on pain induced vocalization (data shown in Table 20) was statistically analyzed by using two-way ANOVA to compare the results obtained pairwise between arthritic animals treated with vehicle with those treated with a given dose of antibody E3. […] Even at the lowest dose tested (0.003 mg/kg of E3), the difference in vocalization was significant (p<0.0001).

B1: E3: humanized, affinity matured anti-NGF antagonist antibody; variable regions SEQ ID NO:1 and 2; human IgG2a (A330P331 to S330S331), kappa (antibody, V domains shown)
VH: QVQLQESGPGLVKPSETLSLTCTVSGFSLIGYDLNWIRQPPGKGLEWIGIIWGDGTTDYNSAVKSRVTISKDTSKNQFSLKLSSVTAADTAVYYCARGGYWYATSYYFDYWGQGTLVTVS
VL: DIQMTQSPSSLSASVGDRVTITCRASQSISNNLNWYQQKPGKAPKLLIYYTSRFHSGVPSRFSGSGSGTDFTFTISSLQPEDIATYYCQQEHTLPYTFGQGTKLEIKRT
modifications: human IgG2a constant (A330S/P331S) and kappa constant missing
survival of E17 nodose neurons promoted by NT4/5 (NT4/5): had no effect; also recorded: did not inhibit
effect on pain induced vocalization vs vehicle (two-way ANOVA) ([1]; 0.003 to 5 mg/kg, p<0.0001): highly significant effect at all levels of E3 tested
Vocalization intensity ([1]; E3 0.003 mg/kg on days 14+18, day 14): 981.75 mV
Vocalization intensity ([1]; E3 0.003 mg/kg on days 14+18, day 16): 825.60 mV
Vocalization intensity ([1]; E3 0.003 mg/kg on days 14+18, day 18): 427.43 mV
Vocalization intensity ([1]; E3 0.003 mg/kg on days 14+18, day 20): 448.00 mV
Vocalization intensity ([1]; E3 0.003 mg/kg on days 14+18, day 24): 724.50 mV
Vocalization intensity ([1]; E3 0.01 mg/kg on days 14+18, day 14): 1007.28 mV
Vocalization intensity ([1]; E3 0.01 mg/kg on days 14+18, day 16): 576.88 mV
Vocalization intensity ([1]; E3 0.01 mg/kg on days 14+18, day 18): 334.45 mV
Vocalization intensity ([1]; E3 0.01 mg/kg on days 14+18, day 20): 313.13 mV
Vocalization intensity ([1]; E3 0.01 mg/kg on days 14+18, day 24): 596.38 mV
Vocalization intensity ([1]; E3 0.03 mg/kg on days 14+18, day 14): 963.18 mV
Vocalization intensity ([1]; E3 0.03 mg/kg on days 14+18, day 16): 448.43 mV
Vocalization intensity ([1]; E3 0.03 mg/kg on days 14+18, day 18): 292.52 mV
Vocalization intensity ([1]; E3 0.03 mg/kg on days 14+18, day 20): 209.48 mV
Vocalization intensity ([1]; E3 0.03 mg/kg on days 14+18, day 24): 513.60 mV
Vocalization intensity ([1]; E3 0.1 mg/kg on days 14+18, day 14): 1159.30 mV
Vocalization intensity ([1]; E3 0.1 mg/kg on days 14+18, day 16): 283.71 mV
Vocalization intensity ([1]; E3 0.1 mg/kg on days 14+18, day 18): 262.96 mV
Vocalization intensity ([1]; E3 0.1 mg/kg on days 14+18, day 20): 79.74 mV
Vocalization intensity ([1]; E3 0.1 mg/kg on days 14+18, day 24): 432.45 mV
Vocalization intensity ([1]; E3 0.3 mg/kg on days 14+18, day 14): 1191.58 mV
Vocalization intensity ([1]; E3 0.3 mg/kg on days 14+18, day 16): 151.85 mV
Vocalization intensity ([1]; E3 0.3 mg/kg on days 14+18, day 18): 194.19 mV
Vocalization intensity ([1]; E3 0.3 mg/kg on days 14+18, day 20): 66.27 mV
Vocalization intensity ([1]; E3 0.3 mg/kg on days 14+18, day 24): 176.32 mV
Vocalization intensity ([1]; E3 1.0 mg/kg on days 14+18, day 14): 1067.00 mV
Vocalization intensity ([1]; E3 1.0 mg/kg on days 14+18, day 16): 98.62 mV
Vocalization intensity ([1]; E3 1.0 mg/kg on days 14+18, day 18): 174.13 mV
Vocalization intensity ([1]; E3 1.0 mg/kg on days 14+18, day 20): 71.23 mV
Vocalization intensity ([1]; E3 1.0 mg/kg on days 14+18, day 24): 19.21 mV
fall of vocalization intensity ([1]; E3 1 mg/kg, within two days (earliest time point tested)): 90%
Vocalization intensity ([1]; E3 5.0 mg/kg on days 14+18, day 14): 896.25 mV
Vocalization intensity ([1]; E3 5.0 mg/kg on days 14+18, day 16): 79.18 mV
Vocalization intensity ([1]; E3 5.0 mg/kg on days 14+18, day 18): 200.42 mV
Vocalization intensity ([1]; E3 5.0 mg/kg on days 14+18, day 20): 63.57 mV
Vocalization intensity ([1]; E3 5.0 mg/kg on days 14+18, day 24): 12.35 mV
pain relief at lowest dose ([1]; doses as low as 0.003 mg/kg): at least partial pain relief
